Values quoted from earlier work, collected in article PMC8295177 (Cancer discovery, 2021).
Where two headings read alike, the source gives them in different places.

Tested on: NSCLC with EGFRex20ins mutations
Details: cited from earlier work
[1] = 39 response-evaluable patients with advanced NSCLC and EGFRex20ins mutations, phase 1

B1: amivantamab: an intravenous bispecific antibody that targets EGFR and MET (antibody, chains of the INN, looked up, V domains shown)
VH: QVQLVESGGGVVQPGRSLRLSCAASGFTFSTYGMHWVRQAPGKGLEWVAVIWDDGSYKYYGDSVKGRFTISRDNSKNTLYLQMNSLRAEDTAVYYCARDGITMVRGVMKDYFDYWGQGTLVTVSS
VL: AIQLTQSPSSLSASVGDRVTITCRASQDISSALVWYQQKPGKAPKLLIYDASSLESGVPSRFSGSESGTDFTLTISSLQPEDFATYYCQQFNSYPLTFGGGTKVEIK
VH2: QVQLVQSGAEVKKPGASVKVSCETSGYTFTSYGISWVRQAPGHGLEWMGWISAYNGYTNYAQKLQGRVTMTTDTSTSTAYMELRSLRSDDTAVYYCARDLRGTNYFDYWGQGTLVTVSS
VL2: DIQMTQSPSSVSASVGDRVTITCRASQGISNWLAWFQHKPGKAPKLLIYAASSLLSGVPSRFSGSGSGTDFTLTISSLQPEDFATYYCQQANSFPITFGQGTRLEIK
investigator-assessed response rate (ORR) [1]: 36% | median PFS [1]: 8.3 months | median PFS (patients with NSCLC with EGFRex20ins and other EGFR mutations): 8.3
